Measurements published in US20250051458A1, “Methods for Treating Neurodegeneration Targeting IGF1/IGF1R” (The Schepens Eye Research Institute, Inc., priority 2021, published 2025).

Tests used:
[1] = test system: retinal microglia; assay: Proteome profiler mouse cytokine array on supernatants of LPS-treated retinal microglial cultures; format: cell-based; details: IGFBPL1 400 ng/ml added 6 hr after LPS 1 μg/ml; total 48 hours
Protocol: Retinal microglia isolation started from dissecting retinas out from CX3CR1/GFP mice. The single cell suspension was obtained followed by papain digestion (20 units; Worthington, Lk003150). Tap every 3-5 mins until completely digested and then add equal volume of inhibitor to neutralize the reaction. Then the supernatants were removed by centrifuge at 300 g for 8 mins. Resuspend retinal cell pellets from CX3CR1/GFP mice into cell staining buffer (BioLegend, 420201) with pacific blue anti-mouse CD11b primary antibody (Biolegend, 101224). […]
As described above, microglial cells were sorted from CX3CR1/GFP mice as described above. […] The array membranes were imaged with iBright CL1500 imaging system (ThermoFisher Scientific, USA) and the results were analyzed using ImageJ software.
To investigate if IGFBPL1 directly mediates microglial function, we studied gene profiling changes in isolated microglial cultures treated by IGFBPL1. Retinal microglia were purified from mice expressing green fluorescence protein (GFP) driven under a microglial specific promoter Cx3cr1 (Cx3cr1-Gfp) using fluorescence-activated cell sorting (FACS)^12. […] This effects of IGFBPL1 on suppressing microglial activation were verified by cytokine arrays, which measured 36 mouse pro-inflammatory cytokines, chemokines from supernatants of microglial cultures. […]

[2] = test system: retinal microglia; assay: Bulk RNA-seq gene profiling of isolated retinal microglial cultures, with or without LPS; format: cell-based, mouse
Protocol: We performed RNA-seq using four Igfbpl1−/− mice retina and four WT mice retina. The raw data was quality controlled and aligned on Mus musculus (mouse) reference genome (GRCm38) with STAR v2.5.0a (PMID: 23104886), FeatureCount (v0.6.1) (PMID: 24227677) was used to count the number of read mapped to each gene. Transcripts Per Million (TPM) was calculated for each gene based on the length of the gene and reads mapped to that gene. Differential expression analysis between Igfbpl1^−/− and WT mice was performed using the DESeq2 R package (v1.22.2) (PMID: 25516281). gene set over representation analysis for the differentially expressed genes was performed with the same above described method. We also downloaded lists of genes with function related to “Microglia”, “Astroglia”, “neuron”, and “photoreceptor” from genecard (www.genecards.org) with relevance score>5, and determined the percentage of and calculated the proportion of differentially expressed genes in each of those gene lists. […]
To investigate if IGFBPL1 directly mediates microglial function, we studied gene profiling changes in isolated microglial cultures treated by IGFBPL1. Retinal microglia were purified from mice expressing green fluorescence protein (GFP) driven under a microglial specific promoter Cx3cr1 (Cx3cr1-Gfp) using fluorescence-activated cell sorting (FACS)^12. […]

[3] = test system: BV2 microglia; assay: Western blot of PI3K phosphorylation in BV2 microglia; format: cell-based, mouse
Protocol: For WB, mouse BV2 cell line was used in this study. It was purchased from ATCC (CRL-2469), and was cultured in DMEM (Thermo Fisher Scientific, Cat. No. 11885084) supplemented with 10% FBS at 37° C. with 5% C02. The medium was changed every 3 days. Cells were then seeded onto 6-well plates and stimulated with LPS (Sigma, Cat #L6529-1MG) for 6 hours and followed by IGFBPL1 (400 ng/ml, R&D system, 4130-BL) and/or IGF1 analog (10 uM, BACHEM, H-1356, Cat. No. 4018631) or NBI-31772 (10 μM, EMD Millipore, Cat. No. 479830). Cells were harvested 48 hrs for following western blotting.
WB was performed as previously noted^29. Cell or tissue samples were sonicated in a cold RIPA buffer supplemented with a 1:100 FAST protease inhibitor (S8830, Sigma-Aldrich, St Louis, MO, USA). […] The total Protein concentration of resulting supernatants was determined using the Qubit 4 Fluorometer (Thermo Fisher Scientific, Waltham, MA, USA). […] Signals were developed with ECL using a Super Signal West Pico kit (Thermo Fisher Scientific, Waltham, MA, USA) and detected with iBright CL 1500 (Thermo Fisher Scientific, Waltham, MA, USA). […] All the quantification results were averaged from three protein blots and expressed as the mean ratio of the values (target protein/housekeeping protein)±standard deviation (SD). […]

B1: IGFBPL1: insulin-like growth factor binding protein like protein 1; recombinant protein (R&D system, 4130-BL) (protein)
chain: LGLRDAGRRHPECSPCQQDRCPAPSPCPAPWISARDECGCCARCLGAEGASCGGPVGSRCGPGLVCASRASGTAPEGTGLCVCAQRGAVCGSDGRSYSSICALRLRARHAPRAHHGHLHKARDGPCEFAPVVLMPPRDIHNVTGTQVFLSCEVKAVPTPVITWKKVKHSPEGTEGLEELPGDHVNIAVQVRGGPSDHETTSWILINPLRKEDEGVYHCHAANAIGEAQSHGTVTVLDLNRYKSLYSSVPGDLL
[1]
  Reversal of LPS-induced inflammatory cytokines (cytokine array, 36 cytokines/chemokines): completely reverted the LPS-induced inflammatory cytokines to the control levels
[2]; IGFBPL1 added 6 hr after LPS stimulation
  Reversal of LPS-induced microglial gene profile (bulk RNA-seq): completely reverted LPS-induced microglial gene profile to the control level
[2]; IGFBPL1 alone, no LPS
  Microglial gene profile versus vehicle controls (bulk RNA-seq): no different between cultures treated with IGFBPL1 alone and vehicle controls
[3]; IGFBPL1 added 6 hr after LPS challenge
  Increase in PI3K phosphorylation: 8 fold
[3]; IGFBPL1 alone, no LPS
  PI3K signaling, individual treatment: did not alter PI3K signaling
